Laboratory results taken from the supplement of paper PMC9170038.

test system: K4 kissing-loop RNA reporter; test: apparent KD of K4 kissing-loop reporter; higher = weaker reporter binding; conditions: Eterna round: R107; input ligand: arginine 13.2 mM
Protocol: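 RNA-MaP round R107: designed RNA switches with theophylline, tryptophan, arginine or FMN aptamers are transcribed on-chip within common flanks. They are titrated with a labelled K4 kissing-loop RNA reporter in RNA-MaP buffer (100 mM Tris pH 7.5, 80 mM KCl, 4 mM MgCl2), without ligand or with the indicated ligand. Median apparent KD per design.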
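Note: bound reporter read as fluorescence of individual clusters on recovered sequencing chips by microscopy, with normalized cluster intensities fitted with a binding model.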

Sequence | apparent KD of K4 kissing-loop reporter [µM]
GGAUCCACCAGUGAUGUUGGAGAAAACUCCAAGGAUAUGACGAAAGUCAGAAGGUGGUAGACUGGACAAAGUCCGGUGGGAUCCA [FmnA10 G78] | 0.141
UUUUUAUAAGAGGAUACCAGUACAAAUAAAGUACAUUAAUAGUAGAGUGAUGUUCUAAAGUACCCUUGGCAGCUUAGAGUAAGUU [ExTheophylB.C] | 0.281
UUCGAUCAGUGAUGUUGAUCAAUAGUCGAAGGAGCGCUAUAGAUAGCAGGUAGGUCGCGACUACAAGGUGUUAAGACACCUCGAA [Arg A SS t9] | 0.43
GUAUUGUGAAUGGAUACCAGACACCCGAGUGAUGUUCGGAGCAGAGUGAUGUUCUAAUAAGUCCCUUGGCAGCCGGAAGCAGCCG [Same State Theophylline B GF 3] | 0.296
AGUUCUUGCCGAAGGAGCGAGGCAGAGUGAUGUUCUGCAGAGGUCGAAAGACCUCAACUGCCUCAGGUAGGUCGCGGCAUGAACA [Omei KL Arginine B Exc A v6] | 0.298
CUGCAACAUAACUUCUUCGUCCUAGAAGACUAGGAUAUCAGGAAACUGAGAAGGAGUCUCUGCAGUGAUGUUGCAGUUAGGACGA [KL-SSFMN-A7] | 0.135

same assay, conditions: Eterna round: R107; input ligand: none

Sequence | apparent KD of K4 kissing-loop reporter [µM]
GGCCCGGGCUCGGCCGCCACUCCCUCGUACCGCAAGGUAUGAUACCGAGUGAUGUUCGGUUGGAGGAGGACCGGGAGCCCGGGCC [#2 Exclusion - Tryptophan B Attempt #6 (HarryS)] | 0.106
AAAAUAAAUAGCAGUCACGGAGUGAUGUUCCGAGGACCGGUACGGCCGCCACUCGACCAGACAAAGUCUGGAGGCGGAGACUGCA [#SwitchBubble 20 #K4Early] | 0.193
AAUCUCGUCCUGGAUACCAGUCGCACGGUUUGUCAUGUCAGCCAGUGAUGUUGCCUGCAUGACCCUUGGCAGCCAUUCUAUGAAU [theeternabot_exclusion_KL_Theo_B_45] | 0.311
GCAGUGAUGUUGCUGAUGUGCAGUGGUAGUCGAGGACCGGUACGGCCGCCACUCGGUGAGAAUUUGUUAAUACAUCGAUAAGUGA [XVI] | 0.788
UGAUACCAGACUGAUACCAGCAGUGAUGUUGCUGAUAAGGGUAGAGUCAAAGACUCUACCUGCCCUUGGCAGCAGUCUGGUAUCU [TheoBX 14 #SwitchBubble #StaticStem] | 0.167
AAAUGACAAGUAAUAAAGAAAAGCGGCGAUACCAGUAAGAACGUAUACCCUUGGCAGCGCAUAUUAGAGUGAUGUUCUAAUCCGA [theeternabot_sameState_KL_Theo_A_25] | 0.148
AAUUUGGGUUCGGCCGCCACUCCAGUGAUGUUGGAUGGCGAAAUAAAGGCUAGACCAGGUUGCCGGAGGACCGGGAAUCCUGUAC [Qumabi] | 0.164
UAGUCCUAGUGAUGGUUAUCACGUGGUGGGCGAGGACCGGUACGGCCGCCACUCGACUAUGCAGUGAUGUUGCAAUCCGGACAAU [Exclusion - Tryptophan A (Freestyle 16)] | 0.423
AGGGUAAGGCGUUAACAUGACACCUGGGAAGGAGCGCGGUACACCGCAGGUAGGUCGCCCAGUGAUGUUGGGUGUAAGUAUGAGU [KL-XArg-A23] | 0.135
GAGAUAGAGGCGGCCGCCACUAGUGAUGUUAGUGAUGUUAGAUAGAGAAUAGAACAGAGAUAGGAUAGGACCGGGCCAGAUAGAG [Tryptophan B Exclusion; Euphoria Solution] | 0.0574
AAUAAUCUAGGUGAUACCAGCUCAACAUGAGUGAUGUUCGUGAGCUAAUGUAGAGUUGAGAGCCCUUGGCAGCACCUAGAUAAUA [KL-SSTheoB7] | 0.943
CACCAUGAAUUCUCUAGGAGUGAUGUUUUUCGAGGACCGGUACGGCCGCCACUCGGACGAGGACCGUGGGAGCGGCGAAGCGGCU [?oegmullin] | 0.767
UCCGAGCUUAUUGAUACCAGUUCGGCGAGCUACUAGAGUGAUGUUCUUGUAAGCGUACACAACCCUUGGCAGCAAUAGAGGAGGU [theeternabot_sameState_KL_Theo_B_37] | 0.135
UCCUAGACUUAGCUAGGUAUAUAAUACGAUACCAGUCUAGAGAUAGACCCUUGGCAGCGUAGGCAGUGAUGUUGCCACUAGCUGA [Theo B SS t7a] | 0.103
GCCCUCUUAACGGCCGCCACUAUAUUUAUGAUCUCUAGUAAGUGAUGUUUACUCCGGCUUAUAGGUAGGACCGGGUUAUUAUCUU [theeternabot_sameState_KL_Trp_B_39] | 0.257
UAAUGGUAAGUGAUGUUUACCUGGAACGAUACCAGUCGCCAUGAGGACCCUUGGCAGCGUCACACAGCCUUCUAGUUGUGGUCUU [theeternabot_sameState_KL_Theo_A_46] | 0.347
UAUAUAGUGACGGCCGCCACUAUAUUAAUGUUUUUGUUAGAGUGAUGUUUUGUUUUUUAAUUUUAUAGGACCGGGUUAUAUGUUA [xnxmullin] | 0.253
ACGUGUCACUGAAGGAGCGUCUACCGAAUACGAGUGAUGUUCGUACACCACUGAUAUAGUGGACAGGUAGGUCGCAGUGAUACGU [Arg B Ex t3] | 0.122
CCUCUCCUUGAUAGUGAUGUUAUCAAGGACAAGGAUAUCAUCUCAAUGAGAAGGUGUCCUUGAUAACAUGGAGGUCUGAAACAGA [Omei KL FMN A Exc C v1] | 0.136
AAACAUCACUGGGAGUGAUGUUCUCAGUGACGAGGACCGGUACGGCCGCCACUCGCGAGAGAUAUAGUCAAGUAAUGACUGCAUU [Excl Tryptophan A V9] | 0.407
AAUGUAUACUGAAGGAGCGAGUAGUGGAAACAUAAACUCAAUGCGAGUGAUGUUCGCAGUACUCAGGUAGGUCGCAGUAAUGGUA [Exclusion Arginine B Gf 8] | 0.537
